Test results reported in US20200262877A1, “ION CHANNEL-BINDING PEPTIDES AND METHODS OF USE THEREOF” (priority 2017, published 2020).

Assays:
TRPA1 = biological target: T1, TRPA1 (Homo sapiens, UniProt O75762); test: Ion channel panel (IonWorks Barracuda): TRPA1; assay type: cell-based; conditions: 100% = no change, <100% = inhibition
T1 construct: host or cells: HEK293 or CHO
How it was run: (§1)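 Peptides were tested in duplicate at final 20 μM and 200 nM, with concentration set by amino acid analysis, in HEPES-buffered saline. They were applied for at least 5 min to HEK293 or CHO cells transfected with each channel. Currents were expressed as % inhibition, 1-(Ipeptide/Icontrol)×100, or % activation, Ipeptide/Icontrol×100, against a channel-matched reference compound.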

Kir2.1 = biological target: T2, Kir2.1 (Homo sapiens, UniProt P63252); test: Ion channel panel (IonWorks Barracuda): Kir2.1; assay type: cell-based; conditions: 100% = no change, <100% = inhibition
T2 construct: host or cells: HEK293 or CHO
How it was run: as §1

NR2A = biological target: T3, NR2A (Homo sapiens, UniProt Q12879); test: Ion channel panel (IonWorks Barracuda): NR2A; assay type: cell-based; conditions: 100% = no change, <100% = inhibition
T3 construct: host or cells: HEK293 or CHO
How it was run: as §1

5HT3a = biological target: T4, 5HT3a (Homo sapiens, UniProt P46098); test: Ion channel panel (IonWorks Barracuda): 5HT3a; assay type: cell-based
T4 construct: host or cells: HEK293 or CHO
T4 sequence (P46098 whole entry, looked up): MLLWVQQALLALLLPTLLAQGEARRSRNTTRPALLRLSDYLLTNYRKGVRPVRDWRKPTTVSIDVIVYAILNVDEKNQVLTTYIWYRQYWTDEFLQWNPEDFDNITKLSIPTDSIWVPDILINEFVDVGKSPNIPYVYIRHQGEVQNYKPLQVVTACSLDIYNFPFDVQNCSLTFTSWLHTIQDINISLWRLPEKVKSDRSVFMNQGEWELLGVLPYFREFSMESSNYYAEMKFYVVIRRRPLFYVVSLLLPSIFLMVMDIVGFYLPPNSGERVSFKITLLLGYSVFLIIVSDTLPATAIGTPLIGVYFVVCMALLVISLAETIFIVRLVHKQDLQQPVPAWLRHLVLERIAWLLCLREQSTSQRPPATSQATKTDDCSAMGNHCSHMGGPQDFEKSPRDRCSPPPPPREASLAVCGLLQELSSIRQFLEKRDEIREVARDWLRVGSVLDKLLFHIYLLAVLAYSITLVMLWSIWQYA
How it was run: as §1

α4β2 = biological target: T5, α4β2 (Homo sapiens, UniProt P17787+P43681); test: Ion channel panel (IonWorks Barracuda): α4β2; assay type: cell-based; conditions: 100% = no change, <100% = inhibition
T5 construct: host or cells: HEK293 or CHO
How it was run: as §1

GABA = test: Ion channel panel (IonWorks Barracuda): GABA; assay type: cell-based; conditions: 100% = no change, <100% = inhibition
How it was run: as §1

Nav1.7 = biological target: T6, Nav1.7 (Homo sapiens, UniProt Q15858); test: cell-based; assay type: cell-based; conditions: 100% = no change; for Activity of Nav1.7 with peptide, expressed as a percentage of the reference compound: peptide at 0.2 μM; for Activity of Nav1.7 with peptide (percentage of the reference compound): peptide at 20 μM
T6 construct: host or cells: HEK293 or CHO
T6 sequence (Q15858 whole entry): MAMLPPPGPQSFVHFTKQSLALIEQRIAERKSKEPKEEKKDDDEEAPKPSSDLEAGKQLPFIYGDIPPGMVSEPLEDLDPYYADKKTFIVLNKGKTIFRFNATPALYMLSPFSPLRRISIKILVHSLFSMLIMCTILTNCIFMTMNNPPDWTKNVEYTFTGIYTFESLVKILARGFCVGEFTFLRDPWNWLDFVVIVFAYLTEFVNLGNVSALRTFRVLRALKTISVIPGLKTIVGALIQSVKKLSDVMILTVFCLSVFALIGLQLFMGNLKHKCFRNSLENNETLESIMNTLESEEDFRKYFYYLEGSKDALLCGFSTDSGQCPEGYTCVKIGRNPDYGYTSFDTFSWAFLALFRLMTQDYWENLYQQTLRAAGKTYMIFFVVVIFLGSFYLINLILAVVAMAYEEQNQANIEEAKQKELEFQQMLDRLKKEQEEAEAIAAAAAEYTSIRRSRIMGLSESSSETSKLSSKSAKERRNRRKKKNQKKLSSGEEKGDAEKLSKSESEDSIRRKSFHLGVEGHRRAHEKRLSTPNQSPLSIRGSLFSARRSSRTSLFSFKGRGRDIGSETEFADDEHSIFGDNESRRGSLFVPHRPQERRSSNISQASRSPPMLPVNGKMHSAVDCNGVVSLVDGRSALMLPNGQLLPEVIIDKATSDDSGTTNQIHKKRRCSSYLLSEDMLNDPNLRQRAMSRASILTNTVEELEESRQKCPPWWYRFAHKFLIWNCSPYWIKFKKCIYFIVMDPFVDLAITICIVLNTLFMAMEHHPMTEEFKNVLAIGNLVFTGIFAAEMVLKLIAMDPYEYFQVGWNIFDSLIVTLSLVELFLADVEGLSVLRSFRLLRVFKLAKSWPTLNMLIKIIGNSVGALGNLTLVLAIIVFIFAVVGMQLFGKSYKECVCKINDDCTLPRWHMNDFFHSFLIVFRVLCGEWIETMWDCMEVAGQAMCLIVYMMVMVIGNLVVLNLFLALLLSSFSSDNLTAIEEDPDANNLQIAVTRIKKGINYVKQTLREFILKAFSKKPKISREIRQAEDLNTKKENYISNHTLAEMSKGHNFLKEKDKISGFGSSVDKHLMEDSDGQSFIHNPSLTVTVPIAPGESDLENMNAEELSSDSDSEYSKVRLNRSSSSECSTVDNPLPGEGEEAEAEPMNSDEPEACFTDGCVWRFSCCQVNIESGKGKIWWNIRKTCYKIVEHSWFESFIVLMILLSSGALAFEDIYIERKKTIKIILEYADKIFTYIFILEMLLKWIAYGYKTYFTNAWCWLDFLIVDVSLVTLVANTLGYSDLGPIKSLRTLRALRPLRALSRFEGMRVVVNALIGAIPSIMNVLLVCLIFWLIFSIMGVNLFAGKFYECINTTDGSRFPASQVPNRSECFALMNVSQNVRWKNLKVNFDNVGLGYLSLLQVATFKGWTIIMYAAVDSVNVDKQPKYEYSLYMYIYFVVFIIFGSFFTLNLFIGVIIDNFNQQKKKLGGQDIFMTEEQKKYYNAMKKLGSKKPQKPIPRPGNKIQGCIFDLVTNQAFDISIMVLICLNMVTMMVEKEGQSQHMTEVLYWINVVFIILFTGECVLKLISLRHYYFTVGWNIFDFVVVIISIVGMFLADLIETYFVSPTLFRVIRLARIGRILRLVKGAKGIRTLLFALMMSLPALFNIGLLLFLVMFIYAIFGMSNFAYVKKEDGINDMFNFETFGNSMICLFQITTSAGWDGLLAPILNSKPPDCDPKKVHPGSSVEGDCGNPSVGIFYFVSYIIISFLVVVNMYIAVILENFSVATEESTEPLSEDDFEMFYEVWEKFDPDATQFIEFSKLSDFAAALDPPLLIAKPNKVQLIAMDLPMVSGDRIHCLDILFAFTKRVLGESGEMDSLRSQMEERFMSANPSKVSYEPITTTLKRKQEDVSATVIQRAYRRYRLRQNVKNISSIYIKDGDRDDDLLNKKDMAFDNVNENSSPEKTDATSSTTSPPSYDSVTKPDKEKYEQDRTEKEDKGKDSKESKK

TRPV1 = biological target: T7, TRPV1 (Homo sapiens, UniProt Q8NER1); test: Ion channel panel (IonWorks Barracuda): TRPV1; assay type: cell-based; conditions: 100% = no change, <100% = inhibition
T7 construct: host or cells: HEK293 or CHO
T7 sequence (Q8NER1 whole entry): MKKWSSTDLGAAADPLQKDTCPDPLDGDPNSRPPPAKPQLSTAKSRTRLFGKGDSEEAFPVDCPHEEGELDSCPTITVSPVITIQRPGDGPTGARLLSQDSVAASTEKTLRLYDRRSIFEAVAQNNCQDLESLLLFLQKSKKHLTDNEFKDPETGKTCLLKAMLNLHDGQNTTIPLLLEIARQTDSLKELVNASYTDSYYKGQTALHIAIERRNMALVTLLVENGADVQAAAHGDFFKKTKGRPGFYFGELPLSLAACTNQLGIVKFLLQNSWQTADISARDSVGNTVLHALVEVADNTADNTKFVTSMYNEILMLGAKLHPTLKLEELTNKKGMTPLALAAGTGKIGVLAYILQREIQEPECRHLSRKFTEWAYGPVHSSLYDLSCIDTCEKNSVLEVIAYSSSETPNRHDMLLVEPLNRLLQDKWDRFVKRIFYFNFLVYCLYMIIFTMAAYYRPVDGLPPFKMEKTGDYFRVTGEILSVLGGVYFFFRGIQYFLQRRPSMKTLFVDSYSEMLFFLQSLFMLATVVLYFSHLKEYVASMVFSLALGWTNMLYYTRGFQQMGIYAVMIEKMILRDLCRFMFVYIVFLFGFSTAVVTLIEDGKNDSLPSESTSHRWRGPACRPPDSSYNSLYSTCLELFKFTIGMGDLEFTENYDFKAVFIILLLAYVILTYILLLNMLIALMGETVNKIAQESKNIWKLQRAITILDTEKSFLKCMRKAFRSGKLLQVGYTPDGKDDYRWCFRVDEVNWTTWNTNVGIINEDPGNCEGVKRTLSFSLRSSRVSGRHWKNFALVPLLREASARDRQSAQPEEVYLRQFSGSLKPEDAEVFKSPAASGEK
How it was run: as §1

Kv1.1 = biological target: T8, Kv1.1 (Homo sapiens, UniProt Q09470); test: cell-based; assay type: cell-based; conditions: 100% = no change, <100% = inhibition
T8 construct: host or cells: HEK293 or CHO
How it was run: as §1

Kv1.2 = biological target: T9, Kv1.2 (Homo sapiens, UniProt P16389); test: cell-based; assay type: cell-based; conditions: 100% = no change, <100% = inhibition
T9 construct: host or cells: HEK293 or CHO
How it was run: as §1

Kv1.3 = biological target: T10, Kv1.3 (Homo sapiens, UniProt P22001); test: cell-based; assay type: cell-based; conditions: 100% = no change, <100% = inhibition
T10 construct: host or cells: HEK293 or CHO
How it was run: as §1

Nav1.5 = Nav1.5 (Homo sapiens, UniProt Q14524); test: in vitro; conditions: 100% = no change; for Activity of Nav1.5 with peptide, expressed as a percentage of the reference compound: peptide at 0.2 μM; for Activity of Nav1.5 with peptide (percentage of the reference compound): peptide at 20 μM
Nav1.5, sequence (Q14524 whole entry): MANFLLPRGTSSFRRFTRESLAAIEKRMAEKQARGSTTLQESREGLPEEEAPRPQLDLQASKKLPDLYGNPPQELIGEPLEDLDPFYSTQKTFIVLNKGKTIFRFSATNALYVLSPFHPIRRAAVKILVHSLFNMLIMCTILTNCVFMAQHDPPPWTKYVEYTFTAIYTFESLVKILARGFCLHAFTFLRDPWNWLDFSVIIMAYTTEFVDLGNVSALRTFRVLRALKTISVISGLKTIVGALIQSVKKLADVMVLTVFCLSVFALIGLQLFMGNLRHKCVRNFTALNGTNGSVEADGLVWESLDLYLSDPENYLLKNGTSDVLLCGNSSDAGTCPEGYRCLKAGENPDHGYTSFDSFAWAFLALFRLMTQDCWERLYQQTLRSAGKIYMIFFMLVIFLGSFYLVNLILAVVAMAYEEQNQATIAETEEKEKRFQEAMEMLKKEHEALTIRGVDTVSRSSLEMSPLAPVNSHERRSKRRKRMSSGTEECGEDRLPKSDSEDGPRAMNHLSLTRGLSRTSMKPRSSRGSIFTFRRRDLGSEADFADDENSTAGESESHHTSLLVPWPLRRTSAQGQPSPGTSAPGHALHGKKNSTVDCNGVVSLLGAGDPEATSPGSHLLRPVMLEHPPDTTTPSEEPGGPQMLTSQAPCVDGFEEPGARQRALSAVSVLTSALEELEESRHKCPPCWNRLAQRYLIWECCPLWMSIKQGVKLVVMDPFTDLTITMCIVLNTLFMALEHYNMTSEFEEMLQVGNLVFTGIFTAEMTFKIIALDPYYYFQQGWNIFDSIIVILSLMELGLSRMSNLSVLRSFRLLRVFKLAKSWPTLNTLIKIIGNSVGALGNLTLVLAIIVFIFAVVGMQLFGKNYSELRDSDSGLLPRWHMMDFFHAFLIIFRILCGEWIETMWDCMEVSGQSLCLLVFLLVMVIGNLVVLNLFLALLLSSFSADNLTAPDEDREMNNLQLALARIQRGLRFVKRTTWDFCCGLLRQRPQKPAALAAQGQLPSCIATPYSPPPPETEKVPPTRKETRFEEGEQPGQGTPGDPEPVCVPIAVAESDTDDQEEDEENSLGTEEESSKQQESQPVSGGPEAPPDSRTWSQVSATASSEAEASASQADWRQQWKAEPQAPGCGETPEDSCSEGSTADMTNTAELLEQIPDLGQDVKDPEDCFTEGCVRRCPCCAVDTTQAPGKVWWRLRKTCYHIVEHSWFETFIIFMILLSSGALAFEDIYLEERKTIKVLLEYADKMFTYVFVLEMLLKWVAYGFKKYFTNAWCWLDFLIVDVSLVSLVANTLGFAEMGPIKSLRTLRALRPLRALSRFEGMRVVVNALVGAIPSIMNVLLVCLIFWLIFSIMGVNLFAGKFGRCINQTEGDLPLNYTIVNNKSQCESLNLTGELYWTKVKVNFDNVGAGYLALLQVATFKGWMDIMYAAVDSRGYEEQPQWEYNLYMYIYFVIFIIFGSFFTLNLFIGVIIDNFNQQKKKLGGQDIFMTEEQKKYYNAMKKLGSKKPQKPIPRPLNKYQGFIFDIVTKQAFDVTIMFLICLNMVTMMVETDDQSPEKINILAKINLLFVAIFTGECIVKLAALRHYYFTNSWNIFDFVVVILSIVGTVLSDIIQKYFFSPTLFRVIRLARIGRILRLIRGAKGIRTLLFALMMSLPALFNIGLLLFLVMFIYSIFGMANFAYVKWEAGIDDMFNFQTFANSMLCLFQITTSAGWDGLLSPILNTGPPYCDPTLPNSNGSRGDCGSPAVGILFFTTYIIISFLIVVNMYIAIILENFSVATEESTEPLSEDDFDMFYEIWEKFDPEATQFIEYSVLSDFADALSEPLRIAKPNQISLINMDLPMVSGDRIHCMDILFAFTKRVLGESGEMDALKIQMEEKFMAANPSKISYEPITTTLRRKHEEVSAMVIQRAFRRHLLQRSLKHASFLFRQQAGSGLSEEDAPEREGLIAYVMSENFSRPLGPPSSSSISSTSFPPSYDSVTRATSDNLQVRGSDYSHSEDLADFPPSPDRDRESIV
How it was run: as §1

hERG = hERG (Homo sapiens, UniProt Q12809); test: in vitro; conditions: 100% = no change, <100% = inhibition
How it was run: as §1

α3β4 = biological target: T11, α3β4 (Homo sapiens, UniProt P30926+P32297); test: Ion channel panel (IonWorks Barracuda): α3β4; assay type: cell-based; conditions: 100% = no change, <100% = inhibition
T11 construct: host or cells: HEK293 or CHO
How it was run: as §1

NR2B = biological target: T12, NR2B (Homo sapiens, UniProt Q13224); test: Ion channel panel (IonWorks Barracuda): NR2B; assay type: cell-based; conditions: 100% = no change, <100% = inhibition
T12 construct: host or cells: HEK293 or CHO
How it was run: as §1

Kv2.1 = biological target: T13, Kv2.1 (Homo sapiens, UniProt Q14721); test: cell-based; conditions: 100% = no change, <100% = inhibition
T13 construct: host or cells: HEK293 or CHO
How it was run: as §1

Cav2.1 = biological target: T14, Cav2.1 (Homo sapiens, UniProt O00555); test: cell-based; conditions: 100% = no change, <100% = inhibition
T14 construct: host or cells: HEK293 or CHO
How it was run: as §1

Cav2.2 = biological target: T15, Cav2.2 (Homo sapiens, UniProt Q00975); test: cell-based; conditions: 100% = no change, <100% = inhibition
T15 construct: host or cells: HEK293 or CHO
How it was run: as §1

[1] = first of two Nav1.7 columns (probably TP1)
[2] = second of two Nav1.7 columns (probably TP2)
[3] = first of two Nav1.5 columns (probably TP1)
[4] = second of two Nav1.5 columns (probably TP2)

With “21 (GSAEIIRCSGTRECYAPCQKLTGCLNAKCMNKACKCYGCV) [compound 21]” the “Activity of TRPA1 with peptide, expressed as a percentage of the reference compound” value (TRPA1; peptide at 0.2 μM) was 119%, the “Activity of TRPA1 with peptide (percentage of the reference compound)” value (TRPA1; peptide at 20 μM) was 95% and the “Activity of Kir2.1 with peptide, expressed as a percentage of the reference compound” value (Kir2.1; peptide at 0.2 μM) was 105%. For the same substance, the “Activity of Kir2.1 with peptide (percentage of the reference compound)” value (Kir2.1; peptide at 20 μM) was 101%, the “Activity of NR2A with peptide, expressed as a percentage of the reference compound” value (NR2A; peptide at 0.2 μM) was 105% and the “Activity of NR2A with peptide (percentage of the reference compound)” value (NR2A; peptide at 20 μM) was 103%. For the same substance, the “Activity of 5HT3a with peptide (percentage of the reference compound)” value (5HT3a) was 91%, the “Activity of 5HT3a with peptide, expressed as a percentage of the reference compound” value (5HT3a) was 87% and the “Activity of a4b2 with peptide, expressed as a percentage of the reference compound” value (α4β2; peptide at 0.2 μM) was 102%. For the same substance, the “Activity of a4b2 with peptide (percentage of the reference compound)” value (α4β2; peptide at 20 μM) was 85%, the “Activity of GABA with peptide, expressed as a percentage of the reference compound” value (GABA; peptide at 0.2 μM) was 111% and the “Activity of GABA with peptide (percentage of the reference compound)” value (GABA; peptide at 20 μM) was 123%. For the same substance, the “Activity of Nav1.7 with peptide, expressed as a percentage of the reference compound” value (Nav1.7; [1]) was 112%, the “Activity of Nav1.7 with peptide, expressed as a percentage of the reference compound” value (Nav1.7; [2]) was 120% and the “Activity of Nav1.7 with peptide (percentage of the reference compound)” value (Nav1.7; [1]) was 105%. For the same substance, the “Activity of Nav1.7 with peptide (percentage of the reference compound)” value (Nav1.7; [2]) was 123%, the “Activity of TRPV1 with peptide, expressed as a percentage of the reference compound” value (TRPV1; peptide at 0.2 μM) was 106% and the “Activity of TRPV1 with peptide (percentage of the reference compound)” value (TRPV1; peptide at 20 μM) was 86%. For the same substance, the “Activity of Kv1.1 with peptide, expressed as a percentage of the reference compound” value (Kv1.1; peptide at 0.2 μM) was 106%, the “Activity of Kv1.1 with peptide (percentage of the reference compound)” value (Kv1.1; peptide at 20 μM) was 98% and the “Activity of Kv1.2 with peptide, expressed as a percentage of the reference compound” value (Kv1.2; peptide at 0.2 μM) was 52%. For the same substance, the “Activity of Kv1.2 with peptide (percentage of the reference compound)” value (Kv1.2; peptide at 20 μM) was 36%, the “Activity of Kv1.3 with peptide, expressed as a percentage of the reference compound” value (Kv1.3; peptide at 0.2 μM) was 65% and the “Activity of Kv1.3 with peptide (percentage of the reference compound)” value (Kv1.3; peptide at 20 μM) was 5%. The “Activity of Nav1.5 with peptide, expressed as a percentage of the reference compound” value (Nav1.5; [3]) was 108%, the “Activity of Nav1.5 with peptide, expressed as a percentage of the reference compound” value (Nav1.5; [4]) was 105% and the “Activity of Nav1.5 with peptide (percentage of the reference compound)” value (Nav1.5; [3]) was 96%. The “Activity of Nav1.5 with peptide (percentage of the reference compound)” value (Nav1.5; [4]) was 91%, the “Activity of hERG with peptide, expressed as a percentage of the reference compound” value (hERG; peptide at 0.2 μM) was 109% and the “Activity of hERG with peptide (percentage of the reference compound)” value (hERG; peptide at 20 μM) was 72%. For the same substance, the “Activity of a3b4 with peptide, expressed as a percentage of the reference compound” value (α3β4; peptide at 0.2 μM) was 102%, the “Activity of a3b4 with peptide (percentage of the reference compound)” value (α3β4; peptide at 20 μM) was 93% and the “Activity of NR2B with peptide, expressed as a percentage of the reference compound” value (NR2B; peptide at 0.2 μM) was 113%. For the same substance, the “Activity of NR2B with peptide (percentage of the reference compound)” value (NR2B; peptide at 20 μM) was 105%, the “Activity of Kv2.1 with peptide, expressed as a percentage of the reference compound” value (Kv2.1; peptide at 0.2 μM) was 110% and the “Activity of Kv2.1 with peptide (percentage of the reference compound)” value (Kv2.1; peptide at 20 μM) was 108%. For the same substance, the “Activity of Cav2.1 with peptide, expressed as a percentage of the reference compound” value (Cav2.1; peptide at 0.2 μM) was 103%, the “Activity of Cav2.1 with peptide (percentage of the reference compound)” value (Cav2.1; peptide at 20 μM) was 106% and the “Activity of Cav2.2 with peptide, expressed as a percentage of the reference compound” value (Cav2.2; peptide at 0.2 μM) was 98%. For the same substance, the “Activity of Cav2.2 with peptide (percentage of the reference compound)” value (Cav2.2; peptide at 20 μM) was 105%.
